{
  "source": "the nanobody polyreactivity screen of Harvey et al. (2022)",
  "data": [
    {"experiment": "yeast display, Sf9 membrane polyspecificity reagent, FACS + sequencing; frameworks hold sequencing errors", "in_short": "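In a synthetic yeast display library (Saccharomyces cerevisiae BJ5465), nanobody expression was induced with galactose for 36–48 hours. FACS gates were set low and high (top ~1%) using anti-HA fluorescence for expression and streptavidin fluorescence for binding of the Sf9 membrane reagent. Each polyreactivity label is drawn from the gate of origin.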", "values": [
      {"sequence": "QVQLVESGGGLVQAGGSLRLSCAASGSIFRRYDMGWYRQAPGKERELVAAISSSGGSTYYADSVKGRFTISRDNAKNTVYLQMNSLKPEDTAVYYCAADIYDDDRSEYTEYDYWGQGTQVTVSS", "polyreactivity (PSR sort gate)": "low polyreactivity"},
      {"sequence": "QFQLEESGGGLVQAGGSLRLSCDASGSTFSYALGWYRQAPGKERELVAAITIGGRTSYADSVKGRFTISRDNAKNTVYLQMNSLKPEDTAVYYCAAEGYYPVYYYVYYGYDYWGQGTQVTVSS", "polyreactivity (PSR sort gate)": "low polyreactivity"},
      {"sequence": "QVQLVESGGGLVQAGGSLRLSCAASGYTFKYYAMAWYRQAPGKERELVAAITRSGGGTYYADSVKGRFTISRDNAKNTVYLQMNSLKPEDTAVYYCKAVLSSHGTDAGSYSYDYWGQGTQVTVSS", "polyreactivity (PSR sort gate)": "high polyreactivity"},
      {"sequence": "QVQLVESGGGLVQAGGSLRLSCAASGYTFLDYAMAWYRQAPGKERELVAAINSGGSTYYADSVKGRFTISRDNAKNTVYLQMNSLKPEDTAVYYCAREDYVSYRLLYYLFDYWGQGTQVTVSS", "polyreactivity (PSR sort gate)": "low polyreactivity"},
      {"sequence": "QVQLVESGGGLVQAGGSLRLSCAASGNIFTSNAMGWYRQAPGKERELVAAITSGGSTYYADSLKGRFTISRDNAKNTVYLQMISLKPEDTAVYYCATLRRPHLRPYYYWGQGTQVTVSS", "polyreactivity (PSR sort gate)": "high polyreactivity"},
      {"sequence": "QVQLVESGGGLVQAGGSLRLSCVASGSISQTYDMGWYRQAPGKERELVAAISSSGASTYYADSVKGRFTISRDNAKNTVYLQMNSLKPEDTAVYYCNADKFRRYGYWGQGTQVTVSS", "polyreactivity (PSR sort gate)": "high polyreactivity"},
      {"sequence": "QVQLVESGGGLVQAGGSLRLSCAASGITFARYAMGWYRQAPGKARELVAAISRSGGSTYYADSVKGRFTSSRDNAKNTVYLQMNSLKPEDSAVYYCAAGGRVRRNKFDDWGQGTQVTVAS", "polyreactivity (PSR sort gate)": "high polyreactivity"},
      {"sequence": "QVQLVESGGGLVQAGGSLRLSCAASGFIFSRNAMGWYRHAPGKERELVAAISLRGGSTYYADSVKGRFTISRDNAKNTVYLQMNSLKPEDTAVYYCAAPLFSGYDYWGQGTQVTVSS", "polyreactivity (PSR sort gate)": "low polyreactivity"},
      {"sequence": "QVQLVESGGGLVQAGGSLRLSCGGSGNSFNSYALGWYRQAPGKEREFVAAISGSGSSTYYADSVMGRFTISRDNAKNTVYLQINSLKPEDTAVYYCAVPYYKRYIWSNRDYWGQGTQVTVSS", "polyreactivity (PSR sort gate)": "high polyreactivity"},
      {"sequence": "QVQLVESGGGLVQAGGSLRLSCAASGRTFLRNDMVWYRQAPGKERELVAAISYSGGRTYYAVSVKGRFTISRDNAKNTVYLQMNSLKPEDTAVYYCAADRFFKAIRPYDYWGQGTQVTVSS", "polyreactivity (PSR sort gate)": "high polyreactivity"},
      {"sequence": "QVQLVESGGGLVQAGGSLRLSCAASGSTFVYYAMGWYSQAPGKERELVAAITRSGGRTYYADSVKGRFTNSRDNAKNRVYLQMNSLKPEDTAVYYCAADDYTGYGYWGQGTQVTVSS", "polyreactivity (PSR sort gate)": "high polyreactivity"},
      {"sequence": "QVQLVESGGGLVQAGGSLRLSCAASGRTFVHYTMGWYRQTPGKDRELVAAISGTGTSTYYADSVKGRFTISRDNAKNTVYLQMNSLKPEDTAVYYCARDPYFGFHIGYPRRDYWGQGTQVTVSS", "polyreactivity (PSR sort gate)": "low polyreactivity"},
      {"sequence": "QVQLVESGGGLVQAGGSLRLSCAAYGITFSGYDMGWYRQAPGKERELVADITISTGSTYYADSVKGRFTISRDNAKNTVYLEMNSLKAEDTAVYYWNADSWFPDHFSYYGPYDYWGQGSQVTVSS", "polyreactivity (PSR sort gate)": "low polyreactivity"},
      {"sequence": "QVQLVESGGGLVQAGGSLRLSCAASGSTFGYNTMGWYRQAPGKERELVASITGRGGSTYYADSVKGRFTISRDNAKNTVYLQMNSLKPEDTAVYYCAAAWKAYRRYGYWGQGTQVTVSS", "polyreactivity (PSR sort gate)": "high polyreactivity"},
      {"sequence": "QVQLVESVGGLVQAGGSLRISCAASGRIFTHNVMGWYRQAPGKERELVAAISASGGSTYYADSVKGRFTISRDNAKNTVYLQMNSLKPEDTAVYYCNAGDYRTFYRRFDYWGQGTQVTVSS", "polyreactivity (PSR sort gate)": "low polyreactivity"},
      {"sequence": "QVQLVESGGGLDQAGGSLRLSCAASGFAFSYYAMGWYRQAPGKEREFVASIDWSGGSTYYADSVKGRFTISRDNAKNTVYLQMNSLKPEDTAVYYCAAELDYFPGYDYWGQGTQVTVSS", "polyreactivity (PSR sort gate)": "low polyreactivity"},
      {"sequence": "QVQLVESGGGLVQAGGSLRLSCAASGRIFGYYVMGWYRQAPGQERELVARIRSGGNTYYADSVKGRFTISRDNAKNTVYLQMNSLKPEDTAVYYCNADPRTGWYKYDYWGQGTQVTVSS", "polyreactivity (PSR sort gate)": "high polyreactivity"},
      {"sequence": "QVQLVESGGGLVQAGGSLRLSCAASGSTFKTYAMGWYRQAPGKERELVAAITSSGGRTYYADSVKGRFTISRDNAKNTVYLQMNSLKPEDTAVYYCAAGRRSYNQLDYWGQGTQVTVSS", "polyreactivity (PSR sort gate)": "high polyreactivity"},
      {"sequence": "QVQHVESGGGLGQAGGSLRLSCAASGSTFRSYAMGWYRQAPGKERELVAVISSGDSTYYADSLKGSFKISRDNAKNTVYLQMNSLKPDDTAVYYCAADSYFLVRWYGYWGQGTQVTVSS", "polyreactivity (PSR sort gate)": "low polyreactivity"},
      {"sequence": "QVQLVESGGGLVQAGGSLRLSCAASGSTVFKNTMGWYRQAPGKEREFVAAIRWSTSRTYYADSVKGRFTISRDNAKNTVYLQMNSLKPEDTAVSYCNAGTSLSRRYPEDYYWGQGTLVTVSS", "polyreactivity (PSR sort gate)": "high polyreactivity"},
      {"sequence": "QVQLVESGGGLVQAGGSLRLSCAASGSTFYIYAMGWYRQAPGKDRELVAAISGRGGSTYYADSVKGRFTISRDNAKNTVYLQMNSLKPEDTAVYYCATYSRQDHKYDYWGQGTQVTVSS", "polyreactivity (PSR sort gate)": "high polyreactivity"},
      {"sequence": "QVQLVESGGGLVQAGGSLRLSCAASGSTFDYYAMGWYRQAPGKERELVAAISGSGDRTYYADSVKGGFTISRDNAKNTVYLQMNSLKREDTAVYYCAKYGRTRFYYWGQVTQVTVSS", "polyreactivity (PSR sort gate)": "high polyreactivity"},
      {"sequence": "QVQLVESGGGLVQAGGSLRLSCAASGSTFWVYTKGWYRQAPGKERELVAAITGSTGNTYYADSVKGRFTISRDNPKNTVYFQMNSLKPEDTAVYYCSADSYWSYRYPMGYDNWGQGSQVTVSS", "polyreactivity (PSR sort gate)": "low polyreactivity"},
      {"sequence": "QVQLVESGGGLVQAGGSLRLSCAASGSTFTSSAMGWYRQAPGKERELVAAISKSGGSTYYADSVKGRFTLSRDNAKNTVYLQMNSLKPEDTAVYYCAARYNVRSYSTSRFDYWGQGTQVTVSS", "polyreactivity (PSR sort gate)": "low polyreactivity"},
      {"sequence": "QVQLVESVGCLVQAGGSLRLSCASTGRTFTPYAMGWYRHRPGKESEFVPAIDTSGGSTYADSVKGRFTISRDNANNTVYLQMNSLKPEDTAVYYCATRGFYSWSYWYLWEYDYWGQGTQVTVSS", "polyreactivity (PSR sort gate)": "low polyreactivity"},
      {"sequence": "QVQLVESGGGLVQAGGSLRLICAASGRTSYIDAMGWYREAPGKERELVARIRSGGSTNYADSVKGRFTISRDNAKNPVYVQMNSLKPEDTAVYYCNADFAFSRKYQANPYSAYDYWGQGTQVTVSS", "polyreactivity (PSR sort gate)": "high polyreactivity"},
      {"sequence": "QVQLVESGGGLVQAGGSLRLSCAASGSIFNPYAMGWYRQAPGKERELVAVIRSRGDRTYYADSVKGRFTISRDYAKNTVYLQMNSLKPEDTAVYYCAVRAQESLWKQYYYWGQGTQVTVSS", "polyreactivity (PSR sort gate)": "high polyreactivity"},
      {"sequence": "QVQLVESGGGLVQAGGSLRLSCAASGFTFGGNAMGWYRQAPGKERELVASITSGGSTNYADSVKGRFTISRDNAKNTVYLQMNSLKPEDTAVYYCAAARTGRARRHFDYWGQGTQVTVSS", "polyreactivity (PSR sort gate)": "low polyreactivity"},
      {"sequence": "QVQLVESGGGLVQAGGSLRLSCAASGRIFVGYAMGWYRQATGKERELVAAISARGGSTYYADSVKGRCTISRDNAKNTVYIQMNSLKPEDTAVYYCAADEASSRGYYDYDYWGQGTQVTVSS", "polyreactivity (PSR sort gate)": "low polyreactivity"},
      {"sequence": "QVQLVESGGGLVQAGGSLRLSCAASGFTLRSNAMGWYRQAPGKERELVASITDGTSTNYADSVKGRFTISRDNAKNTVYLQMNSLKPEDTAVYYCATRHPARRDYWGQGTQVTVSS", "polyreactivity (PSR sort gate)": "low polyreactivity"},
      {"sequence": "QEQRVESGGGFVQAGGSLRLSCAASGFICVDYAMRWYRHARGNEREWVAAITYDGGSTYFADSVKARFTISRDNAKNTVNSQMNSLNPEDTALYYWAADYGYSQYILRQVRLEELDYSGQGTQVTVSS", "polyreactivity (PSR sort gate)": "low polyreactivity"},
      {"sequence": "QVQLVESGGGLVQAGGSLRLSCAASGSTFVQYAMGWYRQAPGKERELVAAIRGRGDSTYYADSVKGRFTISRDNAKNTVYLQMNSLKPEDTAVYYCAARGQGSRGMYYWGQGTQVTVSS", "polyreactivity (PSR sort gate)": "low polyreactivity"},
      {"sequence": "QVQLVESGGGLVQAGGSLRLSCAASGIILPTYVMGWYRQAPGKERELVAAISRRGGSTYYADSVKGRFTISRDNAKNTVYLQMNSLKPEDTAVYYCNAVSNPVGSAYDYWGQGTQVTVSS", "polyreactivity (PSR sort gate)": "high polyreactivity"},
      {"sequence": "QVQHVESGGGLVQAGGSLRLSCAAYGSTFGVNAMGWYRQAPGKEREFVAAITWSSTSTYYADSVKGRFTISRDNAKNTVYLQMNSLKPEDTAVYYCAARQRIYRHYAYGYWGQGTQLTVSS", "polyreactivity (PSR sort gate)": "high polyreactivity"},
      {"sequence": "QVQLVESGGGLVQAGGSLRLSCAASGGTFWAYTRGWYRQAPGKERELVATISFGTGNTYYADSVKGRFTISRDNAKNTVYLQMNSLKPEDTAVYYCAAQWPELTRSYVTVEVDYWGQGTQVTVSS", "polyreactivity (PSR sort gate)": "low polyreactivity"},
      {"sequence": "QVQLVESGGCLVQAGCSLRLSCAASGSTFYSYAMGWYRQAPGKERELVAAINWDGVSTYYADSVKGRFTISRDNAKNTVYLQMNSMKPEDTAVYFCAAELFYGYRISGTYYYWGQGTQVTVSS", "polyreactivity (PSR sort gate)": "low polyreactivity"},
      {"sequence": "QVQLVESGGGLVQAGGSLRLSCAASGSTFSYNDMGWYRQAPGKERELVAAITDSDGNTDYADSVKGRFTISRDKAKNTVYLQMNSLKPEDTAVYYCAAYYYGSVAQDREYWGQGTQVTVSS", "polyreactivity (PSR sort gate)": "high polyreactivity"},
      {"sequence": "QVQLVESGGGLVQAGGSLRLSCAASGSTFKIYAMGWYRQAPGKERELVARITSGGSTNYADSVKGRFTISRDNAKNTVYLQMNSLKPEDTAVYYCAVPWYTRESGAYDYWGQGTQVTVSS", "polyreactivity (PSR sort gate)": "high polyreactivity"},
      {"sequence": "QVQLVESGGGLVQAGGSLRLSCAASGSIFADYAMGWYRQAPGKERELVAAITGSGGRTYYADSVKGRFTISRDNAKNTVYLQMNSLKPEDTAVYYCAVRHRYTRAYWGRDYWGQGTQVTVSS", "polyreactivity (PSR sort gate)": "low polyreactivity"},
      {"sequence": "QVQLVESGGGLVQAGGSLRLSCAASGRIFLVYAMGWYRQAPGKEREIVASISWSGGSTSYADTVKGLFTISRDNAKNNVSLQMNSLKPEDTAVYYCNAIRRPIFFRGRYYWGQGTQVTVSS", "polyreactivity (PSR sort gate)": "low polyreactivity"},
      {"sequence": "QVQLEESGGGLVQAGGSLRLSCAASGRTFGLNAMGWYRQAPGKERELVAAITYSGGSTYYADSVKGRCTISRDNAKNTVYLHMNSLKPEDTAVYYCAKEVQTYWYHYYYWGHGTQVTVSS", "polyreactivity (PSR sort gate)": "high polyreactivity"},
      {"sequence": "QDQLVDSGGGLVQAGGSLSLICAATGLIFNRNAMGWYRQAPGKERELVASISSGGRTNYADSVKGRFTISRDNAKNTVYLQMNSLKPEDTAVYYCAAKSPRILLDYWGQGTQVTVSS", "polyreactivity (PSR sort gate)": "low polyreactivity"},
      {"sequence": "QVQLVESGGGLVQAGGSLRLSCAASGRTFGFYAMGWYRQAPGKERELVAAISKRGGSTYYADSVKGRFTISRDNAKNTVYLQMNSLKPEDTAVYYCAAVGYYLVKFDYWGQGTQVTVSS", "polyreactivity (PSR sort gate)": "high polyreactivity"}
    ]}
  ]
}
